Measured values taken from article PMC10454306, “Genome-Wide Identification of GmSPS Gene Family in Soybean and Expression Analysis in Response to Cold Stress”.

B1: GmSPS8 promoter 50 bp probe (-66 to -115) (dsDNA)
DNA 1: AGTCTACACGTGTGTATCTCCATGGCCCACCATTCCTTGCCACGTGTCAA
DNA 2: TTGACACGTGGCAAGGAATGGTGGGCCATGGAGATACACACGTGTAGACT
B2: GmSPS18 promoter 50 bp probe (-68 to -117) (dsDNA)
DNA 1: GTCTACACGTGTGTATCTCCATGCCCCACCATTCCTGCCACGTGGCAGTG
DNA 2: CACTGCCACGTGGCAGGAATGGTGGGGCATGGAGATACACACGTGTAGAC

Target: T1, GmICE1 conserved domain (GmICE1-His) (Glycine max, UniProt B8XJY5 275-465)
T1 sequence: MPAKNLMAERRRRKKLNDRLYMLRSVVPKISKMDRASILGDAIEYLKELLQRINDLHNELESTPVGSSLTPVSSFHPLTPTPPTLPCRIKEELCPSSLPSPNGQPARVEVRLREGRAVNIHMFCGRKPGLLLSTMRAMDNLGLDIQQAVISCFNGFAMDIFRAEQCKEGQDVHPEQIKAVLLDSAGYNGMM
Assay: EMSA; weakened dose-dependently by unlabeled same-sequence competitor; EMSA kit (Thermo Fisher Scientific); buffer, salt, pH and temperature not stated
Settings: protein: recombinant; tags: His (PET-32a vector); chain copies: 2; label: biotin (forward strand); blunt

Binder | binding result
B1 | binds
B2 | binds
